Assay results reported in patent publication US20150203555A1.

T1: Vascular endothelial growth factor (VEGF165), P15692
T1 chain: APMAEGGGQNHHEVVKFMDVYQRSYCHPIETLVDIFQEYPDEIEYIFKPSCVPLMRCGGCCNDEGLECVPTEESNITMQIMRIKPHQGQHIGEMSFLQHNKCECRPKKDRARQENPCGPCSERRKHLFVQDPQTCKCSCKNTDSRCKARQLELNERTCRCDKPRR


Biological target: T1, Vascular endothelial growth factor …
Assay: competition FP, tracer BODIPY-v114*ΔNT

Ki	Binder
> 100 µM	VDNKFNKEMHNAYAIEIALLPNLNDQQFHAFIWSLIDD (modifications not checked) [Z-VEGF (1-38)]
> 100 µM	VDNKFNKEQHNARAIEAALDPNLNDQQFHAKIWSIIDD (modifications not checked) [α-VEGF-1]
